Consider three substances from patent US8840891 (RSR, dated 2014).

Where two headings read alike, the source gives them in different places.

Test [1] deals with TSHR coated onto tubes (TSHR coated tubes) (human) (UniProt P16473). As to the kind of experiment: TSHR coated tubes.
The target is the same in test [2]. As to the kind of experiment: TSHR coated tubes, in the presence of HBD pool (Table 5).
The target is the same in test [3]. Briefly: TSHR coated tubes, in the presence of HBD pool (Tables 4a, 4b).
Test [4] shares this target. As to the kind of experiment: TSHR coated tubes, in presence of HBD pool.
Test [5] addresses human TSHR, wild type, expressed on CHO cells (human) (UniProt P16473). As to the kind of experiment: cell-based or functional assay.
Test [6] deals with human TSHR with activating mutation A623I, on CHO cells (human) (UniProt P16473). As to the kind of experiment: cell-based or functional assay.
Test [7] deals with human TSHR, wild type, expressed on CHO cells (human) (UniProt P16473). Briefly: cell-based or functional assay. This is another data set of the same source.
The target in test [8] is TSHR with Asp160 mutated to Lysine (human) (UniProt P16473). As to the kind of experiment: cell-based or functional assay.
The target of test [9] is wild type human TSHR (human) (UniProt P16473). Briefly: cell-based or functional assay.

Chain of M22 (antibody) (VH): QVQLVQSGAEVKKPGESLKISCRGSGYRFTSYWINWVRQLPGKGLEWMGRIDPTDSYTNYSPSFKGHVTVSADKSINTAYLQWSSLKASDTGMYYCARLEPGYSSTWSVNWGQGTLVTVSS
Chain of M22 (antibody) (V domain): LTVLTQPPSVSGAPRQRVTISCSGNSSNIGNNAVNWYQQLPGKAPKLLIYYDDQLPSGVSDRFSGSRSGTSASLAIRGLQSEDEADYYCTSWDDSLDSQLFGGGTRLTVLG

In test [1], 125I-labelled TSH (ligand) yielded an average % binding of labelled tracer of 14%. The % of labelled protein bound worked out at 15% in [2] and 12% in test [3]. For the same substance, the % binding of labelled tracer in test [4] was determined as 12%.
As to “9D33 IgG, mouse monoclonal antibody to the TSHR with blocking activity”, in test [5], the cyclic AMP; Exp 1; 9D33 0.01 µg/mL + M22 3 ng/mL was found to be 47.5 pmol/mL, the cyclic AMP; Exp 1; 9D33 0.1 µg/mL + M22 3 ng/mL was determined as 27.6 pmol/mL, the cyclic AMP; Exp 1; 9D33 1 µg/mL + M22 3 ng/mL was found to be 5.25 pmol/mL and the cyclic AMP; Exp 1; 9D33 10 µg/mL + M22 3 ng/mL came out at 2.5 pmol/mL. Moreover, in test [5], the cyclic AMP; Exp 1; 9D33 100 µg/mL + M22 3 ng/mL amounted to 2.13 pmol/mL, the cyclic AMP; Exp 1; 9D33 100 µg/mL only was determined as 1.51 pmol/mL, the cyclic AMP; Exp 2; 9D33 0.001 µg/mL + M22 3 ng/mL worked out at 79.1 pmol/mL and the cyclic AMP; Exp 2; 9D33 0.01 µg/mL + M22 3 ng/mL is 60.2 pmol/mL. Besides, in test [5], the cyclic AMP; Exp 2; 9D33 0.1 µg/mL + M22 3 ng/mL worked out at 38.7 pmol/mL, the cyclic AMP; Exp 2; 9D33 1 µg/mL + M22 3 ng/mL turned out to be 6.03 pmol/mL, the cyclic AMP; Exp 2; 9D33 10 µg/mL + M22 3 ng/mL stood at 0.67 pmol/mL and the cyclic AMP; Exp 2; 9D33 100 µg/mL + M22 3 ng/mL is 1.42 pmol/mL. In test [5], the cyclic AMP; Exp 2; 9D33 100 µg/mL only stood at 1.76 pmol/mL, the cyclic AMP; Exp 3; 9D33 0.001 µg/mL + M22 0.3 ng/mL turned out to be 12.8 pmol/mL, the cyclic AMP; Exp 3; 9D33 0.01 µg/mL + M22 0.3 ng/mL came out at 15.2 pmol/mL and the cyclic AMP; Exp 3; 9D33 0.1 µg/mL + M22 0.3 ng/mL was 5.38 pmol/mL. Further, in [5], the cyclic AMP; Exp 3; 9D33 1 µg/mL + M22 0.3 ng/mL stood at 0.83 pmol/mL, the cyclic AMP; Exp 3; 9D33 10 µg/mL + M22 0.3 ng/mL amounted to 0.97 pmol/mL, the cyclic AMP; Exp 3; 9D33 100 µg/mL + M22 0.3 ng/mL is 1.03 pmol/mL and the cyclic AMP; Exp 3; 9D33 100 µg/mL only is 0.88 pmol/mL. Also, in test [5], the cyclic AMP; Exp 4; 9D33 0.001 µg/mL + M22 0.3 ng/mL was 43.2 pmol/mL, the cyclic AMP; Exp 4; 9D33 0.01 µg/mL + M22 0.3 ng/mL stood at 38.9 pmol/mL, the cyclic AMP; Exp 4; 9D33 0.1 µg/mL + M22 0.3 ng/mL amounted to 27.6 pmol/mL and the cyclic AMP; Exp 4; 9D33 1 µg/mL + M22 0.3 ng/mL is 2.66 pmol/mL. Also, in test [5], the cyclic AMP; Exp 4; 9D33 10 µg/mL + M22 0.3 ng/mL was 1.25 pmol/mL, the cyclic AMP; Exp 4; 9D33 100 µg/mL + M22 0.3 ng/mL turned out to be 2 pmol/mL and the cyclic AMP; Exp 4; 9D33 100 µg/mL only turned out to be 2.38 pmol/mL. In addition, in test [6], the basal cyclic AMP (buffer only 36.89); 9D33 IgG 0.001 µg/mL worked out at 29.6 pmol/mL, the basal cyclic AMP (buffer only 36.89); 9D33 IgG 0.01 µg/mL was found to be 27.6 pmol/mL, the basal cyclic AMP (buffer only 36.89); 9D33 IgG 0.1 µg/mL turned out to be 31.8 pmol/mL and the basal cyclic AMP (buffer only 36.89); 9D33 IgG 1 µg/mL was found to be 40.1 pmol/mL. Besides, in test [7], the % inhibition of basal cyclic AMP production; Exp 3; 9D33 IgG 0.001 µg/mL is 12%, the cyclic AMP; Exp 1; 9D33 1 µg/mL + TSH 3 ng/mL came to 28.7 pmol/mL, the cyclic AMP; Exp 1; 9D33 10 µg/mL + TSH 3 ng/mL amounted to 23.8 pmol/mL and the cyclic AMP; Exp 1; 9D33 10 µg/mL only is 2.9 pmol/mL. Further, in [7], the cyclic AMP; Exp 2; 9D33 1 µg/mL + TSH 3 ng/mL worked out at 19 pmol/mL, the cyclic AMP; Exp 2; 9D33 10 µg/mL + TSH 3 ng/mL worked out at 9.5 pmol/mL, the cyclic AMP; Exp 2; 9D33 10 µg/mL only turned out to be 1.6 pmol/mL and the cyclic AMP; Exp 3; 9D33 0.01 µg/mL + TSH 3 ng/mL is 47.1 pmol/mL. Besides, in test [7], the cyclic AMP; Exp 3; 9D33 0.1 µg/mL + TSH 3 ng/mL was 35.1 pmol/mL, the cyclic AMP; Exp 3; 9D33 1 µg/mL + TSH 3 ng/mL turned out to be 27.8 pmol/mL, the cyclic AMP; Exp 3; 9D33 10 µg/mL + TSH 3 ng/mL stood at 13.5 pmol/mL and the cyclic AMP; Exp 3; 9D33 100 µg/mL + TSH 3 ng/mL was found to be 10.5 pmol/mL. Also, in [7], the cyclic AMP; Exp 3; 9D33 100 µg/mL only is 1.14 pmol/mL, the cyclic AMP; Exp 4; 9D33 0.1 µg/mL + TSH 0.3 ng/mL worked out at 20.2 pmol/mL, the cyclic AMP; Exp 4; 9D33 1 µg/mL + TSH 0.3 ng/mL worked out at 9.01 pmol/mL and the cyclic AMP; Exp 4; 9D33 10 µg/mL + TSH 0.3 ng/mL was 4.23 pmol/mL. In addition, in test [7], the cyclic AMP; Exp 4; 9D33 100 µg/mL + TSH 0.3 ng/mL was 3.53 pmol/mL, the cyclic AMP; Exp 4; 9D33 100 µg/mL only turned out to be 0.99 pmol/mL, the cyclic AMP; Exp 5; 9D33 0.1 µg/mL + TSH 0.3 ng/mL amounted to 14.7 pmol/mL and the cyclic AMP; Exp 5; 9D33 1 µg/mL + TSH 0.3 ng/mL is 6.38 pmol/mL. In addition, in [7], the cyclic AMP; Exp 5; 9D33 5 µg/mL + TSH 0.3 ng/mL turned out to be 3.71 pmol/mL, the cyclic AMP; Exp 5; 9D33 10 µg/mL + TSH 0.3 ng/mL is 3.57 pmol/mL and the cyclic AMP; Exp 5; 9D33 10 µg/mL only amounted to 2.07 pmol/mL.
On to M22 (antibody), for which, in [8], the Mutated/wild type (%); M22 only is 85%, the cyclic AMP; M22 3 ng/mL only (fmol/cell well) turned out to be 14300 and the cyclic AMP; M22 3 ng/mL only (repeat determination) (fmol/cell well) came to 18900. In test [9], this substance came in with a cyclic AMP; M22 3 ng/mL only (fmol/cell well) of 16800 and a cyclic AMP; M22 3 ng/mL only (repeat determination) (fmol/cell well) of 16700.
